Experimental findings from PMC12173945, “Import mechanism of peroxisomal proteins with an N-terminal signal sequence” (Nature Cell Biology, 2025) are described below.

In assay [1] the test system is yeast PEX7. Put plainly: Bead-binding assay: PEX5 variants, PEX7 and PTS2 cargo (Extended Data Fig. 2a,c, 6b). Further details: species or system yeast (S. cerevisiae). Particulars: 1 µM PEX7–GFP. From the text:
Cysteine-containing peptides were covalently conjugated to thiol-reactive SulfoLink coupling resin (Thermo Fisher, catalogue number 20401) according to the manufacturer’s instructions. The prepared beads were then mixed with Assay Buffer containing the fluorescently labelled protein as well as additional components indicated in the text, and the resulting bead suspensions were transferred to a 384-well glass-bottomed plate (Cellvis, P384-1.5H-N). GST-fusion proteins were instead mixed with glutathione agarose 4B (Prometheus, 20-543) in Assay Buffer containing the fluorescently labelled protein and additional components indicated in the text; the resulting bead suspensions were then transferred to a glass-bottomed plate as above. The plates were incubated at RT for the durations specified in the text and directly imaged on the spinning-disk confocal platform described earlier for peroxisomal import reactions in Xenopus egg extract. Note that imaging the beads directly in the binding reaction preserves the equilibrium and thereby allows even weak interactions to be detected. Fluorescence was collected through a Nikon ×10 0.45 NA Plan Apo air objective, and images were acquired using the Nikon NIS-Elements software and a 16-bit digitizer without binning. Imaging parameters were configured to maximize the SNR while avoiding saturation. […]

Assay [2] concerns the target T1, GST-tagged yeast PEX7 (GST–PEX7) (yeast (S. cerevisiae), UniProt P39108 1-375).
T1 construct: PEX7, yeast (S. cerevisiae); GST followed by a TEV protease-cleavage site; source: purified recombinant; PEX7 was produced in P. pastoris as a fusion to an N-terminal GST tag; not shown: GST, N-terminal, kept
T1 sequence (looked up): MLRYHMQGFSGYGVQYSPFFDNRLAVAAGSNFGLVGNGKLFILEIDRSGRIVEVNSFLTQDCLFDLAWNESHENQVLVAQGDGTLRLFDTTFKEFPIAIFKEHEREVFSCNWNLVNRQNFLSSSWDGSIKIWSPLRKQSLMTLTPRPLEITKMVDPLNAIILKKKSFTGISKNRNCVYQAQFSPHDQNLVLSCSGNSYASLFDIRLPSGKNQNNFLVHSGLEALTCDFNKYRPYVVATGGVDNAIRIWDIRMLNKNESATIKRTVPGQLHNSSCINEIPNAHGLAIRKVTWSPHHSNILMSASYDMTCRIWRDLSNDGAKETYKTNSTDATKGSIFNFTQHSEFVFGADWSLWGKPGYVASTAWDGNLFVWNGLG
Put plainly: bead-binding assay (fluorescence on beads by spinning-disk confocal microscopy); GST-tagged protein on glutathione beads; GFP-fused partner in solution (1 µM each in Extended Data Fig. 9a); 1 h, RT. Conditions: both partners purified.

In assay [3] the target is T2, yeast PEX7 fused at the C terminus to GFP (PEX7–GFP) (yeast (S. cerevisiae), UniProt P39108 1-375).
T2 construct: PEX7, yeast (S. cerevisiae); not shown: GST, N-terminal, cleaved; GFP, C-terminal, kept
T2 sequence (looked up): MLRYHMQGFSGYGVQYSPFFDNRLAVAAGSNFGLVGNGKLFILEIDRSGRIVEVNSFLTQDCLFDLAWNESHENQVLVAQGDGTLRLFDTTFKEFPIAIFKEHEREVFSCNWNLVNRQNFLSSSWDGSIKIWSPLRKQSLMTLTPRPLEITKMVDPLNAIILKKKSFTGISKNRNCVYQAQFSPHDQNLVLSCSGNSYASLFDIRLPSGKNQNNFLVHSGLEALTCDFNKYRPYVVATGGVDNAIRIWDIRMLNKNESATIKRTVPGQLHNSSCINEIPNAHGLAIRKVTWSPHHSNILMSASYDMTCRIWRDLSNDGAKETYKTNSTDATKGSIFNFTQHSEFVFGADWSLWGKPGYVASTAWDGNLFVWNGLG
The description is as above. Particulars: both partners purified.

Assay [4] concerns the target T3, yeast PEX7 (yeast (S. cerevisiae), UniProt P39108 1-375).
T3 construct: PEX7, yeast (S. cerevisiae); also called purified recombinant yeast PEX7; not shown: GST, N-terminal, cleaved
T3 sequence (looked up): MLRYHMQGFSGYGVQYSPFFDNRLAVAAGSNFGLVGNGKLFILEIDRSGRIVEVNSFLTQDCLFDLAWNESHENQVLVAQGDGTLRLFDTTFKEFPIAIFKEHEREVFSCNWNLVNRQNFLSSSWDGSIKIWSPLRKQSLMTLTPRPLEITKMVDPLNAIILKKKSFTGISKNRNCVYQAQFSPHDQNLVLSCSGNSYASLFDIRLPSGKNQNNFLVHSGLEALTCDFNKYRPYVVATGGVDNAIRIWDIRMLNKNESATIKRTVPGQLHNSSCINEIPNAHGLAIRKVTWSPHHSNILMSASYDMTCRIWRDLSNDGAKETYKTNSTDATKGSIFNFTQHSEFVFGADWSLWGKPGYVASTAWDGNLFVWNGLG
Put plainly: pull-down; quantitative: glutathione agarose with 1 µM yeast PEX7 and varying concentrations of GST-tagged PEX39 variants, Assay Buffer, 25 °C, 1 h; beads sedimented, PEX7 left in the supernatant quantified by SDS–PAGE and Coomassie; observed binding constants (Kobs). Particulars: both partners purified.

For assay [5], the target named is T2, yeast PEX7 fused at the C terminus to …. Put plainly: bead-binding assay (fluorescence on beads by spinning-disk confocal microscopy); peptide or YG-domain polypeptide conjugated through a cysteine to thiol-reactive beads; PEX7–GFP or GFP alone in Assay Buffer (25 mM HEPES-NaOH pH 7.8, 150 mM NaCl, 1 mM TCEP), RT, 1 h (Fig. 3b); beads imaged directly in the binding reaction. Particulars: both partners purified.

Assay [6] deals with T3, yeast PEX7. Put plainly: pull-down; competition: glutathione beads with yeast PEX7 and GST-tagged PEX39 ∆APH (each 1 µM), 30 min at 25 °C, then varying concentrations of peptide for 1 h; beads sedimented, supernatant on SDS–PAGE with Coomassie; competitive-binding isotherm, observed binding constants (Kobs). Conditions: both partners purified.
Assay [7] has as its system PEX7–FLAG in peroxisome-containing membrane fraction. Put plainly: Cell fractionation and FLAG immunoprecipitation / immunoblot of PEX7–FLAG and PEX39–FLAG. The class given is cell-based, S. cerevisiae. Particulars: PEX13 lacking the KPWE motif; yeast in oleic acid. The procedure:
Samples in Laemmli buffer (50 mM Tris–HCl pH 6.8 at RT, 10% vol/vol glycerol, 2% wt/vol SDS, 0.01% bromophenol blue and 700 mM β-mercaptoethanol) were heated for 5 min at 95 °C and then electrophoretically resolved under denaturing conditions on 4–20% TGX precast polyacrylamide gels (Bio-Rad, catalogue number 5671095). For immunoblotting, samples were transferred from the gels to Immun-Blot PVDF membranes (Bio-Rad, catalogue number 13709A06) for 12 h at 25 V and RT in 25 mM Tris, 192 mM glycine and 10% vol/vol methanol. The membranes were blotted in 20 mM Tris–HCl pH 7.5 at RT, 150 mM NaCl, 0.01% vol/vol Tween 20 and 3% wt/vol fat-free milk solids (Apex, catalogue number 20241) using antibodies to the FLAG epitope (Sigma, F7425) and compatible horseradish peroxidase-conjugated secondary antibodies (Cytiva, NA934). The blots were developed by chemiluminescence (Perkin Elmer, NEL103001EA) and scanned on an Amersham ImageQuant 800 imaging system. For staining with Coomassie blue, gels were fixed in 50% vol/vol methanol and 10% vol/vol acetic acid for 30 min at RT, incubated for 30 min in 50% vol/vol methanol, 10% vol/vol acetic acid and 0.001% wt/vol Coomassie brilliant blue R-250 (Bio-Rad), and destained overnight in 10% vol/vol acetic acid before washing into water. The stained gels were digitized on an Epson Perfection V700 scanner using the Epson Scan 2 software. […]

For assay [8], the system named is S. cerevisiae cells expressing RFP–FOX2 and POT1–GFP. Put plainly: Peroxisomal protein import assay in S. cerevisiae. In kind it is cell-based. Particulars: yeast expressing PTS1 and PTS2 matrix proteins. The procedure:
Peroxisome biogenesis was induced in S. cerevisiae using an established procedure. Briefly, cells were subcultured twice in YPD medium to mid-log phase (optical density at 600 nm (OD600) ≈ 2), harvested through centrifugation at 2,000g and 30 °C for 10 min, sterilely resuspended to an OD600 of 0.5 in YPGO medium (1% wt/vol yeast extract, 2% wt/vol peptone, 2% vol/vol glycerol, 0.1% wt/vol oleic acid and 0.25% vol/vol Tween 40) and cultured for an additional 16 h at 30 °C. For experiments involving PEX7 riboswitch constructs, cultures in YPGO were supplemented with 250 µM tetracycline (Millipore Sigma, T7660) as described previously.
S. cerevisiae cells expressing RFP–FOX2 and POT1–GFP (MSB-462) were induced to form peroxisomes as described earlier. […]
The cells were imaged on a spinning-disk confocal platform consisting of a Nikon Eclipse Ti inverted microscope, a Yokagawa CSU-X1 spinning-disk confocal scanner, a Hamamatsu ORCA-Fusion BT sCMOS camera and a Prior Proscan II motorized stage. […] Fluorescence was collected using a red-emission ET605/52 m (605 ± 26 nm) or a green-emission ET525/50 m (525 ± 25 nm) single-band bandpass filter (Chroma), respectively, through either a Nikon ×100 1.45 numerical aperture (NA) Plan Apo Lambda or Nikon ×40 0.95 NA Plan Apo Lambda air objective. […]

Take SQRLQSIKDHLVESRS [PTS2 peptide]: the “Recruitment of PEX7–GFP to PEX5-21-coated beads” value with yeast PEX7 [1] is on record as “could recruit PEX7–GFP only in the presence of the PTS2 peptide”.

B1: yeast PEX39 fused at the C terminus to GFP (PEX39–GFP) (natural protein, UniProt P47087 1-132, looked up)
chain: MAAGGELSYEELLDHILNNKPIPNIVEVPNVTLDEGLASTPSLRPRPRPWEGQLQHQSHQGSLDKPNISLDIDQESLEGMTSLTRLSECYDIQSKLQINDSDNDNDDNNNDNNKGDGNDDDNNTVTANPTAR
notes: PEX39, yeast; not shown: GST, N-terminal, cleaved; GFP, C-terminal, kept
B1: the binding result in assay [2] is listed as “binds”.

B2: GST-tagged wild-type yeast PEX39 (GST–PEX39) (natural protein, UniProt P47087 1-132, looked up)
chain: MAAGGELSYEELLDHILNNKPIPNIVEVPNVTLDEGLASTPSLRPRPRPWEGQLQHQSHQGSLDKPNISLDIDQESLEGMTSLTRLSECYDIQSKLQINDSDNDNDDNNNDNNKGDGNDDDNNTVTANPTAR
notes: PEX39, yeast; also called WT; PEX39-coated beads; source: E. coli BL21 Rosetta 2(DE3), purified, GST-tagged; not shown: GST, N-terminal, kept
B2: the binding result (in assay [3]; with yeast PEX7 [4]) was “binds” in each case.

B3: KPWE peptide (residues 2–20 of S. cerevisiae PEX13 with an additional N-terminal cysteine) (peptide)
peptide: CSSTAVPRPKPWETSASLEE
notes: additional N-terminal cysteine for coupling to thiol-reactive agarose beads; PEX13, S. cerevisiae, residues 2–20; also called peptide comprising the KPWE motif of yeast PEX13; source: synthetic peptide (Genscript)
B3: the binding result (in assay [5]; in the assay with yeast PEX7 [6]) was “binds” each time.

B4: PEX7–FLAG: PEX7 with a short SG linker and a FLAG epitope tag at the C terminus (protein, UniProt O00628 1-323, looked up)
Peroxisomal targeting signal …: MSAVCGGAARMLRTPGRHGYAAEFSPYLPGRLACATAQHYGIAGCGTLLILDPDEAGLRLFRSFDWNDGLFDVTWSENNEHVLITCSGDGSLQLWDTAKAAGPLQVYKEHAQEVYSVDWSQTRGEQLVVSGSWDQTVKLWDPTVGKSLCTFRGHESIIYSTIWSPHIPGCFASASGDQTLRIWDVKAAGVRIVIPAHQAEILSCDWCKYNENLLVTGAVDCSLRGWDLRNVRQPVFELLGHTYAIRRVKFSPFHASVLASCSYDFTVRFWNFSKPDSLLETVEHHTEFTCGLDFSLQSPTQVADCSWDETIKIYDPACLTIPA
modifications: C-terminal SG linker and FLAG tag
B4: the “Enrichment in the membrane fraction” value in assay [7] is recorded as “considerably enriched in the membrane fraction in the absence of the KPWE motif”. Further, the “PEX7–FLAG function in protein import” value in assay [8] is recorded as “fully functional”.
